We go through two molecules from patent US20090048117A1 (Harvard, published 2009).

Test [1] deals with T1, NFATc expressed from an expression construct.
T1 sequence (O95644 1-943, species assumed, looked up): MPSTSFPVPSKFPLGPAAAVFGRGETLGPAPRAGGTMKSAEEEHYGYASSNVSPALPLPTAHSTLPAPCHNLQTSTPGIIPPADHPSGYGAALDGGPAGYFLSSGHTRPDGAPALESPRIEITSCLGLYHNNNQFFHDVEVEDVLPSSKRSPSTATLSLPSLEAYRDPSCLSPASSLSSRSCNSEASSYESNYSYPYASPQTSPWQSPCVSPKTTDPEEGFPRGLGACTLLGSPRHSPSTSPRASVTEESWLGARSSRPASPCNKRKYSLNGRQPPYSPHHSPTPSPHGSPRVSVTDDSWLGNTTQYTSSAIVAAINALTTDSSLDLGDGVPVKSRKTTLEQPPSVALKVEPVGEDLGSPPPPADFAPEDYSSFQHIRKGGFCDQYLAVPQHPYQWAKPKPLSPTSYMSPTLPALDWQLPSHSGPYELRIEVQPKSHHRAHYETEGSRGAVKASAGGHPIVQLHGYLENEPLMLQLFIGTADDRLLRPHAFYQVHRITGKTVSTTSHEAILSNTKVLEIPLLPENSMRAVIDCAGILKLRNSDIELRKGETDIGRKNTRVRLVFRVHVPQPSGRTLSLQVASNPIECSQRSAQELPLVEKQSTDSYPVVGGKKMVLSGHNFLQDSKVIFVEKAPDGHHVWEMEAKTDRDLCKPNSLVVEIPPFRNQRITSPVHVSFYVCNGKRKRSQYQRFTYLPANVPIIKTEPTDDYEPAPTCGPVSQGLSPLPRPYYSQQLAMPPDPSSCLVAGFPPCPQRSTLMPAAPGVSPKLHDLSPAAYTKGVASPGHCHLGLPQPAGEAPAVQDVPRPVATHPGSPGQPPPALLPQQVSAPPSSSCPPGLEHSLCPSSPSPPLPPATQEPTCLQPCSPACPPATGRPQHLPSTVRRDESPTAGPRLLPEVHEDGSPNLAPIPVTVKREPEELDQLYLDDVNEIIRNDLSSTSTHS
In words: cell-based or functional assay.

In test [2] the target is T2, NFAT3 expressed from an expression construct.
T2 sequence (Q14934 1-902, species assumed, looked up): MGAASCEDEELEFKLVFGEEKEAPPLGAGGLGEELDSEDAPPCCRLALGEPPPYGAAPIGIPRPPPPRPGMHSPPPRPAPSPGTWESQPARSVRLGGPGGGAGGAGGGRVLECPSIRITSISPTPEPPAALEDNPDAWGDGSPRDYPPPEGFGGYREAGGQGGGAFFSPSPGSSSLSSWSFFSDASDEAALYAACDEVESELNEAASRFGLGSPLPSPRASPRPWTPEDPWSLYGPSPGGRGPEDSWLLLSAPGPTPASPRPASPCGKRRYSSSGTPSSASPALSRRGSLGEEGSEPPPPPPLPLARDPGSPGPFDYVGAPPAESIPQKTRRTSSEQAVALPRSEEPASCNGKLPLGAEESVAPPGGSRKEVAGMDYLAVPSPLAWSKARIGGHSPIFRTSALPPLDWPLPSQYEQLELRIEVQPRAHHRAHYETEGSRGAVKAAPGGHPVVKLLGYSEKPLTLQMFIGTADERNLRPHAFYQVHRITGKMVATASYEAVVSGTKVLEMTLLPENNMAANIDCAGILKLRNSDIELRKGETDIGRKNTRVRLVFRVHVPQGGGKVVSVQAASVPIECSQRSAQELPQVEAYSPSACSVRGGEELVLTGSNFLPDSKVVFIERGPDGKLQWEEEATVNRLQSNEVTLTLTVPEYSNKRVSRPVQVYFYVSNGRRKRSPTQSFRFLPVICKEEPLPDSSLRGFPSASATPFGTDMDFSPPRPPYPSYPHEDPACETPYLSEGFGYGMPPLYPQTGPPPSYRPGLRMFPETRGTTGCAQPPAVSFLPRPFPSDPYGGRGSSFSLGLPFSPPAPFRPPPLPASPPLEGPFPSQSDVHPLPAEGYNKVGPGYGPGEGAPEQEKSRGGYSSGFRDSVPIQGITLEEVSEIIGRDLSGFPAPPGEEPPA
Briefly: cell-based or functional assay.

For test [3], the target named is T3, NFAT4 expressed from an expression construct.
T3 sequence (Q12968 2-1075, species assumed, looked up): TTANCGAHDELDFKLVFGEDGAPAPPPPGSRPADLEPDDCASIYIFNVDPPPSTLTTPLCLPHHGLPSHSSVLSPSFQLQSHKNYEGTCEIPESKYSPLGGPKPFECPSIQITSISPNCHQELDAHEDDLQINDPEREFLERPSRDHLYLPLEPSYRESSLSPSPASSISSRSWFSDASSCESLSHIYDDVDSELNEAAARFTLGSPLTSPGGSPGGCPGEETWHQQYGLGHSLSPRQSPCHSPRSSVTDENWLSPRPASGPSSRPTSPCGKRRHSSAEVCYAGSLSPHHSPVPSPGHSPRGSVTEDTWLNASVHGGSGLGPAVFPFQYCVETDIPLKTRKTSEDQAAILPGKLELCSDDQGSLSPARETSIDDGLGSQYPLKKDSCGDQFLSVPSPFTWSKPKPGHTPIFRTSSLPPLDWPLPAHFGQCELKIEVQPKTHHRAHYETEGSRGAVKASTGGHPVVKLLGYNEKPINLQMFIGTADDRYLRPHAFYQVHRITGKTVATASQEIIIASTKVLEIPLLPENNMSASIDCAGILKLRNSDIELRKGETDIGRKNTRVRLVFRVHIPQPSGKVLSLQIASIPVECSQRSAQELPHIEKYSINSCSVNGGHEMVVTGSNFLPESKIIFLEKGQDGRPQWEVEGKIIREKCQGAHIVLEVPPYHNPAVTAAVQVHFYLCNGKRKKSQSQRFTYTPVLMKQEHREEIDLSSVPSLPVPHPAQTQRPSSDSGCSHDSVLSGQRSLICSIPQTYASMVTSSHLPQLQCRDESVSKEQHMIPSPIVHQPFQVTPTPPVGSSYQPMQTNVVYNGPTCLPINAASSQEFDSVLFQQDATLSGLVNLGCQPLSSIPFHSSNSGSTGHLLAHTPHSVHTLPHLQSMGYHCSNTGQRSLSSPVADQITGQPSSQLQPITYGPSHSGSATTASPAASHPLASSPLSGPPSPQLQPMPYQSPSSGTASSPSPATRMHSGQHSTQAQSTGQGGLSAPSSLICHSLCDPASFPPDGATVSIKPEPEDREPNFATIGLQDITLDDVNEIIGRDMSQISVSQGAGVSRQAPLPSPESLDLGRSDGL
In words: cell-based or functional assay.

The target of test [4] is T4, CARM1 of Jurkat cell lysates (human, UniProt Q86X55 2-608, limits assumed).
T4 sequence (looked up): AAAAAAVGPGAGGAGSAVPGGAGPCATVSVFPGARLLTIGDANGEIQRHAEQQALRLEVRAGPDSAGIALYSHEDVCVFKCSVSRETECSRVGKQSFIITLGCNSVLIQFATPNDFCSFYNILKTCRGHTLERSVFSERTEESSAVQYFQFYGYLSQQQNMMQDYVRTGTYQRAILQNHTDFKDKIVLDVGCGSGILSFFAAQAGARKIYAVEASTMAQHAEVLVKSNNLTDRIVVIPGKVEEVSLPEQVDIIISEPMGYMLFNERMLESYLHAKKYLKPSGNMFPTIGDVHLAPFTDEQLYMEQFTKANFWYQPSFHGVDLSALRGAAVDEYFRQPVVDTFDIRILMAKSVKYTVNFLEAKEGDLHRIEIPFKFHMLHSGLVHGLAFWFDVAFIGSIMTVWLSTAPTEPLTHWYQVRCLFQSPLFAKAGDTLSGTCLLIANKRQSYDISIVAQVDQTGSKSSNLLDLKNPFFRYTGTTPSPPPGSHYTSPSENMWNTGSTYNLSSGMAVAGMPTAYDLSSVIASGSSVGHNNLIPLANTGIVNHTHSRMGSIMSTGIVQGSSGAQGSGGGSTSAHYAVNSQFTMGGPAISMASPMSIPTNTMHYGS
In words: GST pull-down of Jurkat cell lysates, immunoblot with a polyclonal CARM1 antibody. The protocol: FIGS. 16A-16C depict the interaction of NIP45 and PRMT. (A) Jurkat cell lysates were used in pulldown assays with 25 μg of recombinant GST, GST-NIP45, and GST-ΔN-NIP45. The presence of PRMT1 or CARM1 in pulldown samples was determined by immunoblotting with a monoclonal PRMT1 antibody and a polyclonal CARM1 antibody. PVDF membranes were reprobed with anti-GST antibodies to determine equal amount of recombinant proteins in pulldown samples. (B) Flag-NIP45or Flag-ΔN-NIP45 or vector control and HA-PRMT1 expression constructs were transfected in 293 cells. Lysates were immunoprecipitated with anti-Flag agarose and interaction with PRMT1 was determined by probing immunoblots with a monoclonal anti-HA antibody. Equal loading was assessed by probing with an anti-Flag antibody. (C) Lysates from unstimulated or 60 min PMA/ionomycin stimulated day 7 Th1 or Th2 differentiation cultures were immunoprecipitated with a monoclonal PRMT1 antibody or appropriate isotype control. Interaction with endogenous NIP45 was determined by immunoblotting PRMT1 antibody to determine equal loading.
Because PRMT1 methylates NIP45, their interaction was examined more closely. To determine specificity of interaction GST-NIP45 and GST-ΔN-NIP45 fusion proteins were used in pulldown assays of Jurkat cell lysates. […]

B1: NIP45 expressed from a NIP45 expression plasmid (other)
chain: MAEPLRGRGPRSRGGRGARRARGARGRCPRARQSPARLIPDTVLVDLVSDSDEEVLEVADPVEVPVARLPAPAKPEQDSDSDSEGAAEGPAGAPRTLVRRRRRRLLDPGEAPVVPVYSGKVQSSLNLIPDNSSLLKLCPSEPEDEADLTNSGSSPSEDDALPSGSPWRKKLRKKCEKEEKKMEEFPDQDISPLPQPSSRNKSRKHTEALQKLREVNKRLQDLRSCLSPKQHQSPALQSTDDEVVLVEGPVLPQSSRLFTLKIRCRADLVRLPVRMSEPLQNVVDHMANHLGVSPNRILLLFGESELSPTATPSTLKLGVADIIDCVVLASSSEATETSQELRLRVQGKEKHQMLEISLSPDSPLKVLMSHYEEAMGLSGHKLSFFFDGTKLSGKELPADLGLESGDLIEVWG
On to B1, for which the figures for the “transactivation of a 3X NFAT-CAT reporter in HepG2 cells” value in test [1], in test [2] and in test [3] were 4 fold, 3 fold and 2 fold, respectively.

B2: GST-NIP45 fusion protein (bacterially expressed, full length NIP45) (other)
chain: B1 chain
notes: also called recombinant GST-NIP45; recombinant full-length NIP45; not shown: glutathione-S-transferase (GST) fusion partner
On to B2, for which the binding result in test [4] is given as “no binding (tested: 25 µg of recombinant protein)”.
